Key:
[1] = biological target: monomer-enriched preparation of the Aβ1-42 peptide (Example 16); assay: ELISA, fraction coated at 2.2 µM; assay 2; antibody dilution 1:32 (start 0.5 µg/ml)
[2] = biological target: oligomer-enriched preparation of the Aβ1-42 peptide (Example 16); assay: as above
[3] = biological target: oligomer-enriched preparation of the Aβ1-42 peptide (Example 16); assay: ELISA, fraction coated at 2.2 µM; antibody dilution 1:8 (start 0.5 µg/ml)
[4] = biological target: high molecular weight (HMW) proto-fibrillar (PF) oligomer enriched preparation of the Aβ1-42 peptide (Example 15) (human); assay: ELISA, fraction coated at 2 µM; antibody 0.125 µg/ml
Sequence of high molecular weight (HMW) proto-fibrillar (PF) oligomer enriched preparation of the Aβ1-42 peptide (Example 15) (human) (peptide, as listed by the source): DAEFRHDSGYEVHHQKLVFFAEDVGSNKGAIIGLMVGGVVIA

[5] = biological target: low molecular weight (LMW) monomeric preparation of the Aβ1-42 peptide (Example 15) (human); assay: as above
Sequence of low molecular weight (LMW) monomeric preparation of the Aβ1-42 peptide (Example 15) (human) (peptide, as listed by the source): as above

[6] = biological target: monomer-enriched preparation of the Aβ1-42 peptide (Example 16); assay: ELISA, fraction coated at 2.2 µM; assay 3; antibody dilution 1:64 (start 0.5 µg/ml)
[7] = biological target: oligomer-enriched preparation of the Aβ1-42 peptide (Example 16); assay: as above
[8] = biological target: high molecular weight (HMW) proto-fibrillar (PF) oligomer enriched preparation of the Aβ1-42 peptide (Example 15) (human); assay: ELISA, fraction coated at 2 µM; antibody 0.5 µg/ml
[9] = biological target: low molecular weight (LMW) monomeric preparation of the Aβ1-42 peptide (Example 15) (human); assay: ELISA, fraction coated at 2 µM; antibody 0.5 µg/ml
[10] = biological target: monomer-enriched preparation of the Aβ1-42 peptide (Example 16); assay: ELISA, fraction coated at 2.2 µM; assay 2; antibody dilution 1:64 (start 0.5 µg/ml)
[11] = biological target: oligomer-enriched preparation of the Aβ1-42 peptide (Example 16); assay: as above
[12] = biological target: monomer-enriched preparation of the Aβ1-42 peptide (Example 16); assay: ELISA, fraction coated at 2.2 µM; assay 3; antibody dilution 1:1 (start 0.5 µg/ml)
[13] = biological target: oligomer-enriched preparation of the Aβ1-42 peptide (Example 16); assay: as above
[14] = biological target: monomer-enriched preparation of the Aβ1-42 peptide (Example 16); assay: ELISA, fraction coated at 2.2 µM; assay 1; antibody dilution 1:1 (start 0.5 µg/ml)
[15] = biological target: oligomer-enriched preparation of the Aβ1-42 peptide (Example 16); assay: as above
[16] = biological target: oligomer-enriched preparation of the Aβ1-42 peptide (Example 16); assay: ELISA, fraction coated at 2.2 µM; assay 1; antibody dilution 1:4 (start 0.5 µg/ml)
[17] = biological target: monomer-enriched preparation of the Aβ1-42 peptide (Example 16); assay: ELISA, fraction coated at 2.2 µM; assay 1; antibody dilution 1:32 (start 0.5 µg/ml)
[18] = biological target: oligomer-enriched preparation of the Aβ1-42 peptide (Example 16); assay: as above
[19] = biological target: monomer-enriched preparation of the Aβ1-42 peptide (Example 16); assay: ELISA, fraction coated at 2.2 µM; assay 1; antibody dilution 1:2 (start 0.5 µg/ml)
[20] = biological target: oligomer-enriched preparation of the Aβ1-42 peptide (Example 16); assay: as above
[21] = biological target: monomer-enriched preparation of the Aβ1-42 peptide (Example 16); assay: ELISA, fraction coated at 2.2 µM; antibody dilution 1:1 (start 0.5 µg/ml)
[22] = biological target: oligomer-enriched preparation of the Aβ1-42 peptide (Example 16); assay: as above
[23] = biological target: high molecular weight (HMW) proto-fibrillar (PF) oligomer enriched preparation of the Aβ1-42 peptide (Example 15) (human); assay: ELISA, fraction coated at 2 µM; antibody 1 µg/ml
[24] = biological target: low molecular weight (LMW) monomeric preparation of the Aβ1-42 peptide (Example 15) (human); assay: ELISA, fraction coated at 2 µM; antibody 1 µg/ml
[25] = biological target: monomer-enriched preparation of the Aβ1-42 peptide (Example 16); assay: ELISA, fraction coated at 2.2 µM; assay 3; antibody dilution 1:32 (start 0.5 µg/ml)
[26] = biological target: oligomer-enriched preparation of the Aβ1-42 peptide (Example 16); assay: as above
[27] = biological target: monomer-enriched preparation of the Aβ1-42 peptide (Example 16); assay: ELISA, fraction coated at 2.2 µM; antibody dilution 1:4 (start 0.5 µg/ml)
[28] = biological target: oligomer-enriched preparation of the Aβ1-42 peptide (Example 16); assay: as above
[29] = biological target: high molecular weight (HMW) proto-fibrillar (PF) oligomer enriched preparation of the Aβ1-42 peptide (Example 15) (human); assay: ELISA, fraction coated at 2 µM; antibody 0.0156 µg/ml
[30] = biological target: low molecular weight (LMW) monomeric preparation of the Aβ1-42 peptide (Example 15) (human); assay: as above
[31] = biological target: monomer-enriched preparation of the Aβ1-42 peptide (Example 16); assay: ELISA, fraction coated at 2.2 µM; assay 3; antibody dilution 1:2 (start 0.5 µg/ml)
[32] = biological target: oligomer-enriched preparation of the Aβ1-42 peptide (Example 16); assay: as above
[33] = biological target: monomer-enriched preparation of the Aβ1-42 peptide (Example 16); assay: ELISA, fraction coated at 2.2 µM; assay 1; antibody dilution 1:16 (start 0.5 µg/ml)

Sequence of monomer-enriched preparation of the Aβ1-42 peptide (Example 16) (peptide, as listed by the source): as above
Sequence of oligomer-enriched preparation of the Aβ1-42 peptide (Example 16) (peptide, as listed by the source): as above

In the case of 6E10 control antibody, the O.D. (405 nm) [1] is reported as 1.34 O.D, the O.D. (405 nm) [2] is reported as 1.3 O.D and the O.D. (405 nm), mean of 3 assays [3] is reported as 2.98 O.D. The O.D. (405 nm) [4] was 0.863 O.D, the O.D. (405 nm) [5] was 0.999 O.D and the O.D. (405 nm) [6] was 1.08 O.D. The O.D. (405 nm) [7] was 0.95 O.D, the O.D. (405 nm) [8] was 2 O.D and the O.D. (405 nm) [9] was 2.13 O.D. The O.D. (405 nm) [10] was 0.94 O.D, the O.D. (405 nm) [11] was 0.88 O.D and the O.D. (405 nm) [12] was 4.04 O.D. For the same substance, the O.D. (405 nm) [13] was 3.89 O.D, the O.D. (405 nm) [14] was 3.67 O.D and the O.D. (405 nm) [15] was 3.36 O.D. It also gave an O.D. (405 nm) [16] of 3.1 O.D, an O.D. (405 nm) [17] of 1.18 O.D and an O.D. (405 nm) [18] of 1.27 O.D. For the same substance, the O.D. (405 nm) [19] was 3.3 O.D, the O.D. (405 nm) [20] was 3.39 O.D and the O.D. (405 nm), mean of 3 assays [21] was 3.83 O.D. It also gave an O.D. (405 nm), mean of 3 assays [22] of 3.64 O.D, an O.D. (405 nm) [23] of 2.55 O.D and an O.D. (405 nm) [24] of 2.68 O.D. The O.D. (405 nm) [25] was 1.54 O.D, the O.D. (405 nm) [26] was 1.4 O.D and the O.D. (405 nm), mean of 3 assays [27] was 3.27 O.D. The O.D. (405 nm), mean of 3 assays [28] was 3.37 O.D, the O.D. (405 nm) [29] was 0.201 O.D and the O.D. (405 nm) [30] was 0.207 O.D. It also gave an O.D. (405 nm) [31] of 4 O.D, an O.D. (405 nm) [32] of 3.83 O.D and an O.D. (405 nm) [33] of 1.78 O.D.

Reference: US20090017041A1
